Measurements: PMC9398908, “GLP-1-mediated delivery of tesaglitazar improves obesity and glucose metabolism in male mice” (Nature Metabolism, 2022)

Key:
in vivo [1] = assay: in vivo; design: species or system Sprague Dawley rats; conditions: Sprague Dawley, rat
Description: (§1) Plasma concentration-time profiles were analysed in C57BL6J mice and Sprague Dawley rats by a non-compartmental method using sparse sampling in Pharsight Phoenix WinNonLin v.6.4 software, and the resulting terminal half-life (T1/2), maximum plasma concentration (Cmax), time for maximum plasma concentration (Tmax), and AUC from zero to last valid measurable concentration-time point (AUC0-t) were determined.

in vivo [2] = assay: in vivo; design: species or system C57BL6J mice; conditions: mouse
Description: as §1

C57BL/6J DIO mice = assay: Urinary albumin:creatinine ratio in DIO mice (Extended Data Fig. 2g); format: in vivo, mouse; conditions: 14-day treatment, 50 nmol kg−1 per day, in words
Source text: Frozen urine samples from heterozygous GIPR^dn mice in a CD1 background (n = 3) served as positive controls. […] For each treatment group, uACR was computed as a ratio of urinary albumin (mg ml^−1) to urinary creatinine (mg ml^−1).

[3] = 100 nmol/kg, concentration (PK, Extended Data Fig. 1c)
[4] = male, 100 nmol/kg, concentration (PK, Extended Data Fig. 1c)
[5] = C57BL6J, 100 nmol/kg, concentration (PK, Extended Data Fig. 1c)
[6] = male, C57BL6/J, 100 nmol/kg, concentration (PK, Extended Data Fig. 1c)

Compound	level at time molar at 4 h (in vivo [1]; [3])	AUC(0-t) (in vivo [1]; male)	Cmax (in vivo [1]; male)	half-life (in vivo [1]; male)	level at time molar at 0.5 h (in vivo [1]; [4])	level at time molar at 2 h (in vivo [1]; [4])	level at time molar at 4 h (in vivo [1]; [4])	level at time molar at 0.5 h (in vivo [2]; [5])	level at time molar at 1 h (in vivo [2]; [5])	AUC(0-t) (in vivo [2]; male, C57BL6/J)	Cmax (in vivo [2]; male, C57BL6/J)	level at time molar at 10 min (in vivo [1]; [4])	level at time molar at 1 h (in vivo [1]; [4])	urinary albumin:creatinine ratio (C57BL/6J DIO mice)	level at time molar at 10 min (in vivo [2]; [5])	half-life (in vivo [2]; male, C57BL6/J)	level at time molar at 2 h (in vivo [2]; [6])	level at time molar at 4 h (in vivo [2]; [6])
CC[C@H](C)[C@H](NC(=O)[C@H](Cc1ccccc1)NC(=O)[C@H](CCC(=O)O)NC(=O)[C@H](CCCCN)NC(=O)[C@H](C)NC(=O)[C@H](C)NC(=O)[C@H](CCC(N)=O)NC(=O)[C@H](CCC(=O)O)NC(=O)[C@H](CCC(=O)O)NC(=O)[C@H](CC(C)C)NC(=O)[C@H](Cc1ccc(O)cc1)NC(=O)[C@H](CO)NC(=O)[C@H](CO)NC(=O)[C@@H](NC(=O)[C@H](CC(=O)O)NC(=O)[C@H](CO)NC(=O)[C@@H](NC(=O)[C@H](Cc1ccccc1)NC(=O)[C@@H](NC(=O)CNC(=O)[C@H](CCC(=O)O)NC(=O)C(C)(C)NC(=O)[C@@H](N)Cc1c[nH]cn1)[C@@H](C)O)[C@@H](C)O)C(C)C)C(=O)N[C@@H](C)C(=O)N[C@@H](Cc1c[nH]c2ccccc12)C(=O)N[C@@H](CC(C)C)C(=O)N[C@H](C(=O)N[C@@H](CCCCN)C(=O)NCC(=O)NCC(=O)N1CCC[C@H]1C(=O)N[C@@H](CO)C(=O)N[C@@H](CO)C(=O)NCC(=O)N[C@@H](C)C(=O)N1CCC[C@H]1C(=O)N1CCC[C@H]1C(=O)N1CCC[C@H]1C(=O)N[C@@H](CO)C(=O)N[C@@H](CCCCN)C(N)=O)C(C)C [GLP-1RA, GLP-1 Aib2 Glu16 CEX Lys40]	10.7 nM	0.131 µM·h	41.3 nM	2.13 h	30.7 nM	26.1 nM	15.8 nM	435 nM	219 nM	0.399 µM·h	361 nM							
CCO[C@@H](Cc1ccc(OCCc2ccc(OS(C)(=O)=O)cc2)cc1)C(=O)N[C@@H](CCC(=O)NCCCC[C@H](NC(=O)[C@H](CO)NC(=O)[C@@H]1CCCN1C(=O)[C@@H]1CCCN1C(=O)[C@@H]1CCCN1C(=O)[C@H](C)NC(=O)CNC(=O)[C@H](CO)NC(=O)[C@H](CO)NC(=O)[C@@H]1CCCN1C(=O)CNC(=O)CNC(=O)[C@H](CCCCN)NC(=O)[C@@H](NC(=O)[C@H](CC(C)C)NC(=O)[C@H](Cc1c[nH]c2ccccc12)NC(=O)[C@H](C)NC(=O)[C@@H](NC(=O)[C@H](Cc1ccccc1)NC(=O)[C@H](CCC(=O)O)NC(=O)[C@H](CCCCN)NC(=O)[C@H](C)NC(=O)[C@H](C)NC(=O)[C@H](CCC(N)=O)NC(=O)[C@H](CCC(=O)O)NC(=O)[C@H](CCC(=O)O)NC(=O)[C@H](CC(C)C)NC(=O)[C@H](Cc1ccc(O)cc1)NC(=O)[C@H](CO)NC(=O)[C@H](CO)NC(=O)[C@@H](NC(=O)[C@H](CC(=O)O)NC(=O)[C@H](CO)NC(=O)[C@@H](NC(=O)[C@H](Cc1ccccc1)NC(=O)[C@@H](NC(=O)CNC(=O)[C@H](CCC(=O)O)NC(=O)C(C)(C)NC(=O)[C@@H](N)Cc1c[nH]cn1)[C@@H](C)O)[C@@H](C)O)C(C)C)[C@@H](C)CC)C(C)C)C(N)=O)C(=O)O [GLP-1RA/tesaglitazar, GLP-1 Aib2 Glu16 CEX Lys40/tesaglitazar conjugate]	20.5 nM	0.174 µM·h	37.5 nM	2.54 h		26.8 nM	21.2 nM	314 nM	131 nM	0.505 µM·h	278 nM	41.7 nM	40.3 nM	likewise not changed	246 nM	1.1 h	87.6 nM	21.6 nM
